# Data taken from paper PMC5714250.
# T1: APUM23Delete (Arabidopsis thaliana, UniProt Q9C552 85-655, del235-270)
# T1 sequence: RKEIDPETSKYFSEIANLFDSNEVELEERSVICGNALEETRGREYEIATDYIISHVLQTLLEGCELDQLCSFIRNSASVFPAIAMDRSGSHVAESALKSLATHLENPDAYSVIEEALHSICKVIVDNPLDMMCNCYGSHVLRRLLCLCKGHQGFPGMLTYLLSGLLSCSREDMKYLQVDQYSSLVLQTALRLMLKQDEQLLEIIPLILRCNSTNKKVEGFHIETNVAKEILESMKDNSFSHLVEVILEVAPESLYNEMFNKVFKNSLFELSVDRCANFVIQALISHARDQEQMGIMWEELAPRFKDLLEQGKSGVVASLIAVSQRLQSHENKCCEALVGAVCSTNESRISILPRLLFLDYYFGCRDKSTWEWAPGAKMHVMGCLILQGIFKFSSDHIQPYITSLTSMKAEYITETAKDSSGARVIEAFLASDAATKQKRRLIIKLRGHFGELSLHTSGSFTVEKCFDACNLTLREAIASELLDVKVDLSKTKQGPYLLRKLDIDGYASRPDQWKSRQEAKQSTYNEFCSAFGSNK
# T2: APUM23 85-655 (WT) (Arabidopsis thaliana, UniProt Q9C552 85-655)
# T2 sequence: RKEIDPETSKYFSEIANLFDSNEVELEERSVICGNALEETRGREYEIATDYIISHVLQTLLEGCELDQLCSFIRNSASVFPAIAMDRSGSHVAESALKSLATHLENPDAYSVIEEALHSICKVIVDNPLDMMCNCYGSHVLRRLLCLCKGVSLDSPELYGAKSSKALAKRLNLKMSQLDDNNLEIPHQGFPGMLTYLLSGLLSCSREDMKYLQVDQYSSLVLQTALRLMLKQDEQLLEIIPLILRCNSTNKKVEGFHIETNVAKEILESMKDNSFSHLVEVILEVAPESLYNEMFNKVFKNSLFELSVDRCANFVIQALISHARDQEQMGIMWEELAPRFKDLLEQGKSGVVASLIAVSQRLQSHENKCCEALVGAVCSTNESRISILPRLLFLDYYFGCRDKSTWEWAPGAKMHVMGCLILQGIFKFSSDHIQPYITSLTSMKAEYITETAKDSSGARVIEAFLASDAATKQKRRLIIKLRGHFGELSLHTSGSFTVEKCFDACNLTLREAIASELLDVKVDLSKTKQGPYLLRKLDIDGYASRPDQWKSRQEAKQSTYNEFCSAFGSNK
# Legend:
# APUM23Delete = target: T1, APUM23Delete; test: X-ray crystallography
# APUM23 85-655 (WT) = target: T2, APUM23 85-655 (WT); test: X-ray crystallography
binder,measurement,setting,value
GGAAUUGACGG (ssRNA) [11-mer WT RNA (18S rRNA 1141-1151)],binding result,APUM23Delete,binds
GGAGUUGACGG (ssRNA) [11-mer A+3G RNA],binding result,APUM23 85-655 (WT),binds
